These results are taken from article PMC4658703 (2012).

This assay deals with IGF2 (Homo sapiens, UniProt P01344).

Usually Kd stands for the constant that tells how readily two partners part at equilibrium. Higher therefore signals lower affinity.

Sequence of IGF2 (P01344 25-91): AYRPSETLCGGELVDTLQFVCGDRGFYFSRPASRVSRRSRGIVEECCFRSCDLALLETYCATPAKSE

B1: IGF2R domain 11 (protein)
chain: MKSNEHDDCQVTNPSTGHLFDLSSLSGRAGFTAAYSKSGVVYMSICGENENCPPGVGACFGQTRISVGKANKRLRYVDQVLQLVYKDGSPCPSKSGLSYKSVISFVCRPEARPTNRPMLISLDKQTCTLFFSWHTPLACEQAT
Consider B1, for which the Kd was 15 nM.
